# Data published in patent US20090285840A1, “METHODS FOR TREATING PATHOLOGICAL NEOVASCULARIZATION” (New York Society for the Ruptured and Crippled Maintaining …, priority 2008, published 2009).
# Key:
# [1] = system: ADAM9; assay: ADAM9 expression in mouse embryonic fibroblasts treated with H2O2 (immunoblot); type: cell-based; conditions: MEF cells from wildtype mice, H2O2 200 μM (highest concentration), 6 hrs
# [2] = system: EphB4; assay: Alkaline phosphatase shedding assay of transiently expressed EphB4 in mouse embryonic fibroblasts treated with H2O2; type: cell-based
# Method: Stimulation of ADAM9-dependent shedding. […] Alkaline phosphatase shedding assays were performed as described (Weskamp et al., 1996, Cell Biol. 132:717-726; Zheng et al., 2002, J. BioI. Chem. 277:42463-42470) in (mouse embryonic fibroblasts) MEF cells and in pig aortic endothelial cells (PAE cells, kindly provided by Dr. Shahin Rafii). Reactive oxygen species (ROS) assays were performed using a modified version of the procedure reported by Sung et al., 2006, Cancer Res 66:9519-26). Specifically, 20 hours post-transfection, cells maintained at 50-60% culture density were washed twice with OptiMem over the course of 1 hour. […] The resulting supernatants and lysates were collected and assayed in triplicate for alkaline phosphatase activity as described previously (Sahin et al., 2006, “A sensitive method to monitor ectodomain shedding of ligands of the epidermal growth factor receptor,” In Epidermal Growth Factor: Methods and Protocols, In P. J. B. and T. B. Patel eds., Vol. 327, p. 99-113., Humana Press Inc., Totowa, N.J.; Sahin et al., J. Cell Biol. 164:769779; Zheng et al., 2002, J. BioI. Chem. 277:42463-42470). All data presented here representative example from at least three independent assays.
# The shedding of EphB4 from Adam9 −/− cells could be rescued by transfection with ADAM9, however, the resulting activity could not be further enhanced by treatment with H2O2. […]
# [3] = target: alkaline phosphatase tagged EphrinB2 (UniProt P05187)
# [4] = target: alkaline phosphatase tagged VE-Cadherin (UniProt P05187)
# [5] = target: alkaline phosphatase tagged ICAM-1 (amino acids 26-532) (UniProt P13597)
# Chain of UniProt P13597 (P13597 26-532): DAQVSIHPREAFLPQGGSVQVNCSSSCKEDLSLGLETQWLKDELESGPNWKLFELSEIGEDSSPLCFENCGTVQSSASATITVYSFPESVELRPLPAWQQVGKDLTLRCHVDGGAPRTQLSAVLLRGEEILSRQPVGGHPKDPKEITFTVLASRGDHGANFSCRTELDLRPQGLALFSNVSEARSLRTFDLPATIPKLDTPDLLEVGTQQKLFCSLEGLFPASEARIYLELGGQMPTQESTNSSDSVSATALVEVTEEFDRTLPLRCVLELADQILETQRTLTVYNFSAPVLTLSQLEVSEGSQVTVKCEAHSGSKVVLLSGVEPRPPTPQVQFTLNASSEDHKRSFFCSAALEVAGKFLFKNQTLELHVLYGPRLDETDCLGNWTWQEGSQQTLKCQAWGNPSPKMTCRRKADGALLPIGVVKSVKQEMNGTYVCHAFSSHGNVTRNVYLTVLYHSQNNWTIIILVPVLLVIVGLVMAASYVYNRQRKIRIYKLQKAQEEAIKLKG
# [6] = target: alkaline phosphatase tagged Tie-2 (amino acids 580-833) (UniProt Q02858)
# Chain of UniProt Q02858 (Q02858 580-833): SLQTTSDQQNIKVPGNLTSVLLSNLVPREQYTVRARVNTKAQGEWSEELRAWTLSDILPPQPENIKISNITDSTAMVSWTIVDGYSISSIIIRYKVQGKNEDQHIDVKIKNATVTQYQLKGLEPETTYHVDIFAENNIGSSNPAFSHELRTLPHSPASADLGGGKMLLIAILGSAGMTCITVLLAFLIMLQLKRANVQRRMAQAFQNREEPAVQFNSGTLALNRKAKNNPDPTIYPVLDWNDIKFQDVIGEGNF
# [7] = target: alkaline phosphatase tagged EphB4 (UniProt P05187)
# [8] = target: T1, alkaline phosphatase tagged VCAM-1 (amino acids 28-739) (UniProt P29533)
# T1 sequence: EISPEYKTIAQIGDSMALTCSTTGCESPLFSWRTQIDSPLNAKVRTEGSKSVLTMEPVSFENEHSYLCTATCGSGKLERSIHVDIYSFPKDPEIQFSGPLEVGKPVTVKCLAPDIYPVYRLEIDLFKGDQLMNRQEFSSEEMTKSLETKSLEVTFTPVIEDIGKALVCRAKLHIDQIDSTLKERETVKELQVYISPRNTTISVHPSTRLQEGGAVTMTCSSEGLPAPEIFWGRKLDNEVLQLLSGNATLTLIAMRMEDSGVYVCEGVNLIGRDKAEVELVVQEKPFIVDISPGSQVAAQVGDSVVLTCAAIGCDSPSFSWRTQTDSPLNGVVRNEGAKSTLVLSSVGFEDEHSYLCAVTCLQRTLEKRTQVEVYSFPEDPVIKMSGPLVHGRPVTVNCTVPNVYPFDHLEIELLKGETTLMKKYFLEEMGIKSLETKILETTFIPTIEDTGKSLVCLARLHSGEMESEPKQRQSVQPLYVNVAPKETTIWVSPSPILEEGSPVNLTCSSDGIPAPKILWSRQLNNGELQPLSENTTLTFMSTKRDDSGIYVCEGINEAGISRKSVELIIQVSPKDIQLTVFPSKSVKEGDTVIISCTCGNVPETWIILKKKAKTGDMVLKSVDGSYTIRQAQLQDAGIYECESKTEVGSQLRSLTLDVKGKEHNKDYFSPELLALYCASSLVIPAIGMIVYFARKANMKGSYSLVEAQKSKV
# [9] = target: T2, alkaline phosphatase tagged CD34 (amino acids 31-385) (UniProt Q64314)
# T2 sequence: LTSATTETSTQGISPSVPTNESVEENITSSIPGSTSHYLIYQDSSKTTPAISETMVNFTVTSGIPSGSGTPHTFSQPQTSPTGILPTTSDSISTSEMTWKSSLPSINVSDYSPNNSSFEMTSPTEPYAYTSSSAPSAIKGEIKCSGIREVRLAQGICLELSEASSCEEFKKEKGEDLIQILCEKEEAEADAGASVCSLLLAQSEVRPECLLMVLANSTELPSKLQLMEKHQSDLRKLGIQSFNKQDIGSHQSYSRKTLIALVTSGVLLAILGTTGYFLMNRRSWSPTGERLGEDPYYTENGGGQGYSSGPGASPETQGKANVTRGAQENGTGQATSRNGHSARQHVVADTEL
# [10] = target: alkaline phosphatase tagged FLK-1 (amino acids 605-859) (UniProt P35918)
# Chain of UniProt P35918 (P35918 605-859): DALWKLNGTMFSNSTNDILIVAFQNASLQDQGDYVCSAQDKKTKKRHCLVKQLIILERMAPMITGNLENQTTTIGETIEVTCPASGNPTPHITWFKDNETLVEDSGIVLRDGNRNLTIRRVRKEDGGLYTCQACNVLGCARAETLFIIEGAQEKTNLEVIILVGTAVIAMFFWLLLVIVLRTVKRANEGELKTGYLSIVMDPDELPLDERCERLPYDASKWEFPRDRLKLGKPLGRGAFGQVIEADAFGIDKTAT
# [11] = target: T3, alkaline phosphatase tagged E-Selectin (amino acids 31-612) (UniProt Q00690)
# T3 sequence: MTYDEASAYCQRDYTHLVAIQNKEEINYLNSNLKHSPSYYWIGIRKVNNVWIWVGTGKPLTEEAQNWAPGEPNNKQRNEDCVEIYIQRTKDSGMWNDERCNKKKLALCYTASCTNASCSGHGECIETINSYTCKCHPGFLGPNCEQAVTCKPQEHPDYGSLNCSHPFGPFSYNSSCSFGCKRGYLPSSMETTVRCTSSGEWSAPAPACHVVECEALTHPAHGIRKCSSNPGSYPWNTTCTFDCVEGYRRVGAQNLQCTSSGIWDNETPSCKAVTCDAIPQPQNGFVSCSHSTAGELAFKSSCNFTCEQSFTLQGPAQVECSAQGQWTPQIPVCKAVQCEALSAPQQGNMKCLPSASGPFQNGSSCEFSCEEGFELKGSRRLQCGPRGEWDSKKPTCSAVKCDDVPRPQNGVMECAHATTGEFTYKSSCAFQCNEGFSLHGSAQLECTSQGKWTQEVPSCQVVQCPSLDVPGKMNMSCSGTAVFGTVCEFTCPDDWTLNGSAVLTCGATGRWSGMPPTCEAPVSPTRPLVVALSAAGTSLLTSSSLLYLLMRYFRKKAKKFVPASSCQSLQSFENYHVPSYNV
# [12] = target: alkaline phosphatase tagged CD36 (UniProt P05187)
# [13] = target: alkaline phosphatase tagged CD40 (amino acids 24-278) (UniProt P27512)
# Chain of UniProt P27512 (P27512 24-278): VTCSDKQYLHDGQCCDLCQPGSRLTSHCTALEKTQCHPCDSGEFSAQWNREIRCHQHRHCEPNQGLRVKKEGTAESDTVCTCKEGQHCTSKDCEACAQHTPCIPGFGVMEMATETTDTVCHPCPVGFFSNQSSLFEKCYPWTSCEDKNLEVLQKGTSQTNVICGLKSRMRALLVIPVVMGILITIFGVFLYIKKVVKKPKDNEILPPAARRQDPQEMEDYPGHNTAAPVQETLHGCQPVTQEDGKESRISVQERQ
# Chain of ADAM9 (wild type, overexpressed from an expression construct) (Q13443 whole entry): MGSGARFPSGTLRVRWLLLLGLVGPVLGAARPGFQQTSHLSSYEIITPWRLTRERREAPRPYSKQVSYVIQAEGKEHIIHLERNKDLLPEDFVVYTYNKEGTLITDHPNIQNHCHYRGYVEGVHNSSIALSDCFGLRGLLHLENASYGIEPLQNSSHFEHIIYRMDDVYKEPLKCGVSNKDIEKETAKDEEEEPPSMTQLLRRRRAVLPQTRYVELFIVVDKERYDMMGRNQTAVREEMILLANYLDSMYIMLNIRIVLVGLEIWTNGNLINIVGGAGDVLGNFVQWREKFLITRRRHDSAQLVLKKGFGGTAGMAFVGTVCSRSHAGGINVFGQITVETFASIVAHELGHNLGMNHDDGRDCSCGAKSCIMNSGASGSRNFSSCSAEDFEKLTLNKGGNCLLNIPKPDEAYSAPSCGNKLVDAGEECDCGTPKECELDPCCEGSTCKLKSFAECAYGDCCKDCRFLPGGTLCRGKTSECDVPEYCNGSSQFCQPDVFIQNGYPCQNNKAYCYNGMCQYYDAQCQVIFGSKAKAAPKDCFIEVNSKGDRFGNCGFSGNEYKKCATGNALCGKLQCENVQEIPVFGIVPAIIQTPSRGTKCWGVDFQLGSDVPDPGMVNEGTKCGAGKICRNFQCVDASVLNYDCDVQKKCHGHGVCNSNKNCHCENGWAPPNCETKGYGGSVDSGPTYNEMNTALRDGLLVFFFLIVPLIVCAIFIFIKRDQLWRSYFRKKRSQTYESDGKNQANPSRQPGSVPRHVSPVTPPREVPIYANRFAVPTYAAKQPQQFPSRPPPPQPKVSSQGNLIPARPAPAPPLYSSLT
"EphB4 shedding ([2]; Adam9 −/− cells expressing EphB4, 100 or 200 μM H2O2)","shedding of transiently expressed EphB4 ([2]; wt MEF cells, 100 or 200 μM H2O2 for 6 hrs)",Molecule,ADAM9 expression [1],shedding (alkaline phosphatase activity released into the supernatant) [3],shedding (alkaline phosphatase activity released into the supernatant) [4],shedding (alkaline phosphatase activity released into the supernatant) [5],shedding (alkaline phosphatase activity released into the supernatant) [6],shedding (alkaline phosphatase activity released into the supernatant) [7],shedding (alkaline phosphatase activity released into the supernatant) [8],shedding (alkaline phosphatase activity released into the supernatant) [9],shedding (alkaline phosphatase activity released into the supernatant) [10],shedding (alkaline phosphatase activity released into the supernatant) [11],shedding (alkaline phosphatase activity released into the supernatant) [12],shedding (alkaline phosphatase activity released into the supernatant) [13]
no increase in EphB4 shedding,strong increase in the shedding,OO [H2O2],increase in ADAM9 expression,–,–,–,–,–,–,–,–,–,–,–
–,–,"ADAM9 (wild type, overexpressed from an expression construct)",–,"Overexpression of ADAM9 did not increase the shedding of E-selectin, ICAM-1, Ephrin B2, CD34 and CD36 compared to ADAM9 E>A, at least under the conditions used here","overexpression of ADAM9 increased the shedding of CD40, EphB4, Flk1, Tie-2, VE-cadherin and VCAM compared to cells overexpressing ADAM9 E>A together with these substrates","Overexpression of ADAM9 did not increase the shedding of E-selectin, ICAM-1, Ephrin B2, CD34 and CD36 compared to ADAM9 E>A, at least under the conditions used here","overexpression of ADAM9 increased the shedding of CD40, EphB4, Flk1, Tie-2, VE-cadherin and VCAM compared to cells overexpressing ADAM9 E>A together with these substrates","overexpression of ADAM9 increased the shedding of CD40, EphB4, Flk1, Tie-2, VE-cadherin and VCAM compared to cells overexpressing ADAM9 E>A together with these substrates","overexpression of ADAM9 increased the shedding of CD40, EphB4, Flk1, Tie-2, VE-cadherin and VCAM compared to cells overexpressing ADAM9 E>A together with these substrates","Overexpression of ADAM9 did not increase the shedding of E-selectin, ICAM-1, Ephrin B2, CD34 and CD36 compared to ADAM9 E>A, at least under the conditions used here","overexpression of ADAM9 increased the shedding of CD40, EphB4, Flk1, Tie-2, VE-cadherin and VCAM compared to cells overexpressing ADAM9 E>A together with these substrates","Overexpression of ADAM9 did not increase the shedding of E-selectin, ICAM-1, Ephrin B2, CD34 and CD36 compared to ADAM9 E>A, at least under the conditions used here","Overexpression of ADAM9 did not increase the shedding of E-selectin, ICAM-1, Ephrin B2, CD34 and CD36 compared to ADAM9 E>A, at least under the conditions used here","overexpression of ADAM9 increased the shedding of CD40, EphB4, Flk1, Tie-2, VE-cadherin and VCAM compared to cells overexpressing ADAM9 E>A together with these substrates"
